Test results published in paper PMC5397045, “Biochemical and molecular characterization of the isocitrate dehydrogenase with dual coenzyme specificity from the obligate methylotroph Methylobacillus Flagellatus” (PLoS ONE, 2017).
Each block holds one molecule with its values, some of them ahead of it.

How the values were obtained:
[1] = target: native isocitrate dehydrogenase from Methylobacillus flagellatus (Methylobacillus flagellatus ATCC51484); test: native gel or EMSA; gradient non-denaturing PAGE (4-20%, w/v), protein stain and zymogram staining for NAD+- and NADP+-dependent activity; band compared with protein markers
[2] = target: recombinant 6x-His-tagged isocitrate dehydrogenase from Methylobacillus flagellatus (Methylobacillus flagellatus ATCC51484); test: SEC; HiLoad 10/300 Superdex 200, 0.05 M potassium phosphate buffer pH 7.0, 0.15 M NaCl, 0.01% sodium azide, 0.5 mL/min; calibrated with standards of 29-669 kDa
MfIDH = target: T1, MfIDH (Methylobacillus flagellatus, UniProt Q1GZD1); test: NAD(P)H formation at […] nm; format: biochemical; conditions: read-out: % inhibition at 2 mM
T1 construct: gene Mfla_2139; native enzyme purified from M. flagellatus cells, untagged; 413 residues; homodimer (recombinant N-terminal 6xHis form said to be essentially the same)
T1 sequence (Q1GZD1 1-413): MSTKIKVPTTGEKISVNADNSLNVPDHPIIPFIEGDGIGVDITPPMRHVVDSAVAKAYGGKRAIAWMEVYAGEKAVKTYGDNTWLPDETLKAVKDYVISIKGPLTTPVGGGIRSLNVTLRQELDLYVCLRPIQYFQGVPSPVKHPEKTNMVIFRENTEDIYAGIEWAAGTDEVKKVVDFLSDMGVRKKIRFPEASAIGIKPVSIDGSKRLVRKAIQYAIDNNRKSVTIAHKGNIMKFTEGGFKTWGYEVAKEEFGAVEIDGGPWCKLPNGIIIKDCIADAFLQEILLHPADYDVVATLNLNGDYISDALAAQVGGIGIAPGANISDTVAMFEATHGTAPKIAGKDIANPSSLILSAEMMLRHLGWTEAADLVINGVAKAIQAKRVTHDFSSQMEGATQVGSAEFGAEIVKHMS

purified protein [3] = substrate: O=C(O)CC(C(=O)O)C(O)C(=O)O; test: purified protein; format: biochemical, Methylobacillus flagellatus; conditions: cosubstrate NAD+ (saturating), Mn2+, 100 mM Tris-HCl pH 8.5, 42°C, pH 8.5
purified protein [4] = substrate: NC(=O)c1ccc[n+]([C@@H]2O[C@H](COP(=O)(O)OP(=O)(O)OC[C@H]3O[C@@H](n4cnc5c(N)ncnc54)[C@H](OP(=O)(O)O)[C@@H]3O)[C@@H](O)[C@H]2O)c1; test: purified protein; format: biochemical, Methylobacillus flagellatus; conditions: saturating DL-isocitrate, Mn2+, 100 mM Bis-Tris-HCl pH 6.0, 42°C, apparent, pH 6.0
purified protein [5] = substrate: NC(=O)c1ccc[n+]([C@@H]2O[C@H](COP(=O)(O)OP(=O)(O)OC[C@H]3O[C@@H](n4cnc5c(N)ncnc54)[C@H](O)[C@@H]3O)[C@@H](O)[C@H]2O)c1; test: purified protein; format: biochemical, Methylobacillus flagellatus; conditions: saturating DL-isocitrate, Mn2+, 100 mM Tris-HCl pH 8.5, 42°C, apparent, pH 8.5

- stoichiometry N [1]: 2
Molecule: native isocitrate dehydrogenase from Methylobacillus flagellatus (enzyme)

- stoichiometry N [2]: 2
Molecule: recombinant 6x-His-tagged isocitrate dehydrogenase from Methylobacillus flagellatus (enzyme)

- inhibition at 2000 µM (MfIDH): 50%
Molecule: Nc1ncnc2c1ncn2[C@@H]1O[C@H](COP(=O)(O)OP(=O)(O)OP(=O)(O)O)[C@@H](O)[C@H]1O [ATP]

B1: MfIDH (Methylobacillus flagellatus KT) (protein)
chain: MSTKIKVPTTGEKISVNADNSLNVPDHPIIPFIEGDGIGVDITPPMRHVVDSAVAKAYGGKRAIAWMEVYAGEKAVKTYGDNTWLPDETLKAVKDYVISIKGPLTTPVGGGIRSLNVTLRQELDLYVCLRPIQYFQGVPSPVKHPEKTNMVIFRENTEDIYAGIEWAAGTDEVKKVVDFLSDMGVRKKIRFPEASAIGIKPVSIDGSKRLVRKAIQYAIDNNRKSVTIAHKGNIMKFTEGGFKTWGYEVAKEEFGAVEIDGGPWCKLPNGIIIKDCIADAFLQEILLHPADYDVVATLNLNGDYISDALAAQVGGIGIAPGANISDTVAMFEATHGTAPKIAGKDIANPSSLILSAEMMLRHLGWTEAADLVINGVAKAIQAKRVTHDFSSQMEGATQVGSAEFGAEIVKHMS
notes: native enzyme purified from M. flagellatus cells, untagged; 413 residues; homodimer (recombinant N-terminal 6xHis form said to be essentially the same)
- Km (purified protein [3]): 9.0 µM
- Km (purified protein [4]): 184 µM
- kcat (purified protein [4]): 56 s⁻¹
- kcat/Km (purified protein [4]): 300000 M⁻¹ s⁻¹
- Km (purified protein [5]): 113 µM
- kcat (purified protein [5]): 166 s⁻¹
- kcat/Km (purified protein [5]): 1.5e+06 M⁻¹ s⁻¹
